# In paper doi:10.1101/2021.04.13.439655:
# Experiments:
# [1] = biological target: extended construct of the non-phosphorylated Smad2 MH2 domain (S2LMH2); assay: SAXS with ensemble optimization method
# [2] = biological target: full-length phosphomimetic Smad2 (S2FLEEE) (UniProt Q15796); assay: SAXS with ensemble optimization method
# Chain of full-length phosphomimetic Smad2 (S2FLEEE) (from UniProt Q15796 1-467) (natural protein) (Q15796 whole entry): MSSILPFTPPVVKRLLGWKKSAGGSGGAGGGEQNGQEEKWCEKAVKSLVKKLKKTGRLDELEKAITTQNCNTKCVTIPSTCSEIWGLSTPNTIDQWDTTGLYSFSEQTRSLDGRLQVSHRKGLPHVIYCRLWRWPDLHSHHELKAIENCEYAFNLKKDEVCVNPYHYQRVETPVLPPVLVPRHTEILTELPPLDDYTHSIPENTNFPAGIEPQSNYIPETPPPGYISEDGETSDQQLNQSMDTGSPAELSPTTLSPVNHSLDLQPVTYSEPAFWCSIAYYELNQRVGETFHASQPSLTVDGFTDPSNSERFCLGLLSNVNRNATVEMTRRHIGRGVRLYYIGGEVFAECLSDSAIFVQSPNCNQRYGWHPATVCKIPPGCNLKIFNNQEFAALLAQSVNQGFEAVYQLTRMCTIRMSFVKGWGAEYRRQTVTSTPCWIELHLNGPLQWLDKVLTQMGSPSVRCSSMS
# Chain of extended construct of the non-phosphorylated Smad2 MH2 domain (S2LMH2) (domain or fragment) (Q15796 269-467): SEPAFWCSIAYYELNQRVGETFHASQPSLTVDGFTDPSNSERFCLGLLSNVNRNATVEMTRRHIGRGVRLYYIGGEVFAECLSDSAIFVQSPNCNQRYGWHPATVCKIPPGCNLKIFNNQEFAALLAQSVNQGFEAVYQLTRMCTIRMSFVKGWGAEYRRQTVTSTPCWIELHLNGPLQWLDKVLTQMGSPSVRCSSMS
percent of the total population as trimer at 15 and 30 μM [1] [%],stoichiometry N [1],percent of the population as dimer at all concentrations analyzed [2] [%],percent of the population as trimer at 28.1 μM [2] [%],Substance
50,3,–,–,extended construct of the non-phosphorylated Smad2 MH2 domain (S2LMH2) (domain or fragment)
–,–,36,44.8,full-length phosphomimetic Smad2 (S2FLEEE) (from UniProt Q15796 1-467) (natural protein)
